Test results as given in the RNAGym collection of RNA variant scans (doi:10.7554/elife.80360).

B1: HDV Ribozyme (parent)
chain: GGCCGGCAUGGUCCCAGCCUCCUCGCUGGCGCCGGCUGGGCAACAUUCCGAGGGGACCGUCCCCUCGGUAAUGGCGAAUGGGACCCA

Variants of: B1
Assay: self-cleavage, relative activity (ratio to wild type); higher = more cleavage; co-transcriptional

Variant | self-cleavage
GGCCGGCAUGGUCCCAGCCUCCUCGCUGGCGCCGGCGGGGCAACAUUCCGAGGGGACCGUCCCCUCGUUAAUGGCGAAUGGGACCCA [U37G G68U] | 0.128
GGCCGGCAUGGUCCCAGCCUCCUCGCUGGCGCCGGCUGGUCAACAUUUCGAGGGGACCGUCCCCUCGGUAAUGGCGAAUGGGACCCA [G40U C48U] | 0.628
GGCCGGCAUGGUCCCAGCCUCCUUGCUGGCGCCGGCUGGGCAACAUUCCGAGGGGACCGUUCCCUCGGUAAUGGCGAAUGGGACCCA [C24U C61U] | 0.718
GGCCGGCAUGGUCCCAGCCUCCUCGCUGGCGCCGACAGGGCAACAUUCCGAGGGGACCGUCCCCUCGGUAAUGGCGAAUGGGACCCA [G35A U37A] | 0.0898
GGCCGGCAUGGUCCCAGCCUCCUCGCUGGAGCCGGCUGGGCAACAUUCCGAGGGGACCGUCCCCUCUGUAAUGGCGAAUGGGACCCA [C30A G67U] | 0.339
GGCCGGCUUGGUCCCAGCCUCCUCGCUGGCGCCGGAUGGGCAACAUUCCGAGGGGACCGUCCCCUCGGUAAUGGCGAAUGGGACCCA [A8U C36A] | 0.0811
GGCCGGCAUGGUCCCAGCCUCCGCGCUGGCGCCGGCUGGGCAACAUUCCGAGUGGACCGUCCCCUCGGUAAUGGCGAAUGGGACCCA [U23G G53U] | 0.866
GGCCGGCAUGGUACCAGCCUCCUCGCUGGCGCCGGCUGGGCAACAUUCCAAGGGGACCGUCCCCUCGGUAAUGGCGAAUGGGACCCA [C13A G50A] | 0.295
GGCCCGCAUGGUCCCAGCCUCCUCGCUGGCGCCGGCUGGGCAACAUUCCGAGGGGACCGUCCCCUCGGAAAUGGCGAAUGGGACCCA [G5C U69A] | 0.111
GGCCGGCAUGGUCCCAGCCUCCUCGCUGGUGCCGGCUGGGCAACAUUCCGAGGGGACCGUCCCCUCGGUAAUCGCGAAUGGGACCCA [C30U G73C] | 0.136
GGCCGGCAUGGUCCCAGCCUCCUCGCUGGCGCCGGCUGGGCAACAUUCCGAGGGGACCGUCCCGUCGGUAAUGGCGAAUGGGACCGA [C64G C86G] | 0.859
AGCCGGCAUGGUCCCAGCCUCCUCGCUGGCGCCGGCUGGGCAACAUUCCGAGGGGACCGUCACCUCGGUAAUGGCGAAUGGGACCCA [G1A C62A] | 0.0791
GGCCGGCAUGGUCCCAGCUUCCUCGCUGGCGCCGGCUGGGCAACAUUCCGAGGGGACCGUCCCCUCGGUAAUGGCGAAUGGGGCCCA [C19U A83G] | 0.0985
GGCCGGUAUGGUCCCAGCCCCCUCGCUGGCGCCGGCUGGGCAACAUUCCGAGGGGACCGUCCCCUCGGUAAUGGCGAAUGGGACCCA [C7U U20C] | 0
GGCGGGCAUGGUCCCAGCCUCCUCGCUGGCGCCGGCUGGGCAACAUUCCGAGGGGACCGUCCCCUCGGUAAAGGCGAAUGGGACCCA [C4G U72A] | 0.0437
GGCCGGCAUGGUCCCAGCCUCCUCGCUGGCGCCGGCUGGGCAACAUUCCGAGGGGACCGUCCCCACGGUAAAGGCGAAUGGGACCCA [U65A U72A] | 0.636
GGCCGGCAUGGUCCCAGCCUCCCCGCUGGCGCGGGCUGGGCAACAUUCCGAGGGGACCGUCCCCUCGGUAAUGGCGAAUGGGACCCA [U23C C33G] | 0
GGCCGGCAUGGUCCCAGCCUCCUCGCUGGCUCCGGCUGGGCAACAUUCCGAGGGGCCCGUCCCCUCGGUAAUGGCGAAUGGGACCCA [G31U A56C] | 0.389
GGCCGGCAUGGUCCCACCCUCCUCGCUGGCGCCGGCUGGGCAACAUUCCGAGGGAACCGUCCCCUCGGUAAUGGCGAAUGGGACCCA [G17C G55A] | 0.402
GGCCGGCAUGGUCCCAGCCUCCUCGCUGGCGCCGGCUGGGCAACAUUCCGAGGGGACCGUCCCCUCGGUAAUGGCCCAUGGGACCCA [G76C A77C] | 0.104
GGACGGCAUGGUCCCAGCCUCCUCGCUGGAGCCGGCUGGGCAACAUUCCGAGGGGACCGUCCCCUCGGUAAUGGCGAAUGGGACCCA [C3A C30A] | 0.0393
GGCCGGCAUGGUCCCAGCCUCCUCGCUGGCGCCGGCUGUGCAACAUUCCGCGGGGACCGUCCCCUCGGUAAUGGCGAAUGGGACCCA [G39U A51C] | 0.849

Variant | self-cleavage
GGCCGGCAUGGUCCCAGCCUCCUCGCUGGCGCCGGCUGGGCACCAUUCCGAGGGGACCGUCCCCUCGGGAAUGGCGAAUGGGACCCA [A43C U69G] | 0.68
GGCCGGCAUGCUCCCAGCCUCCUCGCUGGCGCCGGCUGGGCAACAUUCCGAGGGGACCGUCCCCUCGGUAUUGGCGAAUGGGACCCA [G11C A71U] | 0.252
GGCCGGCAUGGUCCCAGCCUUCUCGCUGGCGCCGGCUGGGCAACAUUCCGAGGGGACCGUCCCCUCGGUAAUGGCGAAUGGGACCCG [C21U A87G] | 0.165
GGCCGGCAUGGUCCCAGCCCCCUCGAUGGCGCCGGCUGGGCAACAUUCCGAGGGGACCGUCCCCUCGGUAAUGGCGAAUGGGACCCA [U20C C26A] | 0.104
GUCCGGCAUGGUCCCAGCCUCCUCGCUGGCGCCGGCUGGGCAACAUUCCGAGGGGACCGUCCCCUGGGUAAUGGCGAAUGGGACCCA [G2U C66G] | 0.0198
GGCCGGCAUGGUCCCAGCGUCCUCGCUGGCGCCGGCUGGGCAACAUUCCGAGGGGACCGUCUCCUCGGUAAUGGCGAAUGGGACCCA [C19G C62U] | 0.116
GGCCGGCAUGGUACCAGCCUCCUCGCUGGCGCCGGCUGGGCAACAUUCCGAGGGGACCGUCCCCUCGGUAAUGGCGAAUGGGACCCC [C13A A87C] | 0.222
GGCCGGCAUGGUCCCAGCCUCCUCGCUGGCGCCUGCUGGGCAACAUUCCGAGGGGACCGUCCCCUCGGGAAUGGCGAAUGGGACCCA [G34U U69G] | 0.0361
GGCCGGCAUGGUCCCAGCCUCCUCGCUGGCGCCGGCUGGGCAACAUUCGGAGGGGACCGUCCCCUCGGUACUGGCGAAUGGGACCCA [C49G A71C] | 0.302
GGCCGGCAUGGUCCCAGCCUCCUCGCUGGCGCCGGCUGGGCAACAUUCCGAGGGGACCGUCCCCUCCGUAAUGGCGAAUGGGACCGA [G67C C86G] | 0.933
GGCCGGCAUGGUCCCAGCCUCCUCGCUGGCGCCGGCUGGGCAACAUUCCGAGGGGCCCGUCCCCUCGGUAAUGGCGAAUGUGACCCA [A56C G81U] | 0.277
GGCCGGCAUGGUCCCAGCCUCCUCGCUGGCGCCGGCUGGGCAACAUUCCGAGGGGACCGUCUCCUCGGUAAUGGCGAAUGGGGCCCA [C62U A83G] | 0.818
GGCCGGCAUGGUCCCAGCCUCCUCACUGGCGCCGGCUGGGCAACAGUCCGAGGGGACCGUCCCCUCGGUAAUGGCGAAUGGGACCCA [G25A U46G] | 0.262
GGCCGGCAUGGUUCCAGCCUCCUCCCUGGCGCCGGCUGGGCAACAUUCCGAGGGGACCGUCCCCUCGGUAAUGGCGAAUGGGACCCA [C13U G25C] | 0.0723
GGCCGGCAUGGUCCCAGCCUCUUCGCUGCCGCCGGCUGGGCAACAUUCCGAGGGGACCGUCCCCUCGGUAAUGGCGAAUGGGACCCA [C22U G29C] | 0.0405
GGCCGGCAUGGUCCCAGCCUCGUCGCUGGGGCCGGCUGGGCAACAUUCCGAGGGGACCGUCCCCUCGGUAAUGGCGAAUGGGACCCA [C22G C30G] | 0.0437
GGCCGGCAUGGUCCCAGCCUCCUCGCUGGCGCCGGCUCGGCAACUUUCCGAGGGGACCGUCCCCUCGGUAAUGGCGAAUGGGACCCA [G38C A45U] | 0.213
GGCCGGCAUGGUCCCAGCCUGCUCGCUGGCGCCGCCUGGGCAACAUUCCGAGGGGACCGUCCCCUCGGUAAUGGCGAAUGGGACCCA [C21G G35C] | 0.178
GGCCGGCAUGGUCCCAGCCUCCUCGCUGGCGCCGGCUGGGCAACAGUCCGAGGGGACCGUCCCCUCGGUAAUGGCGGAUGGGACCCA [U46G A77G] | 0.415
GGCCGGCAUGGUACCAGCCUCCUCGCUGGCGCCGGCUGGGCAACAUUCCGAGGGGACCGUCCCCUCGGUAAUGGGGAAUGGGACCCA [C13A C75G] | 0.145
GGCCGGCAUGUUCCCAGCCUCAUCGCUGGCGCCGGCUGGGCAACAUUCCGAGGGGACCGUCCCCUCGGUAAUGGCGAAUGGGACCCA [G11U C22A] | 0.0179
GGCCGGCAUGGUCCCGGCCUCCUCGCUGGCGCCGGCUGGGCAACAUUCCGAGGGGUCCGUCCCCUCGGUAAUGGCGAAUGGGACCCA [A16G A56U] | 1.25

Variant | self-cleavage
GGCCGGCAUGGUCCCAUCCUCCUCGCUGGCGCCGGCUGGGCAACAUUCCGAGGGGACCGUCCCCCCGGUAAUGGCGAAUGGGACCCA [G17U U65C] | 0.332
GGCCGGCAUGGUCCCAGCCUCCUCGCUGGCGCCGGCUGGUCAACAUUCCGAGGGGACCGUCCCCUCGGUAAUGGCGAAUGGGACUCA [G40U C85U] | 0.911
GGCCGGCAUGGUCCCAGCCUCCUCGCUGGCGCCGGCUGGGCAACAUUCCGAGGGGACCGUCCCCUCGGUAAUGGCGUAUUGGACCCA [A77U G80U] | 0.161
GUCCGGCAUGGUCCCAGCCUCCUCGCUGGCGCCGGCUGGGCAACAUUCCGAGGGGACCGUCCGCUCGGUAAUGGCGAAUGGGACCCA [G2U C63G] | 0.0528
GGCCGGCAUGGUCCCAGCCUCCUCGCUGGCGCCGGCUGGGCAUCAUUCCGAGGGGACCGUCCCCUCGGUAAUGGCGAAUGUGACCCA [A43U G81U] | 0.16
GGCCGGCAUGGUCCCAGCCUCCGCGCUGGCGCCGGCUGGGCAACAUUCCGAGGGGACCGUCCCCUCGGUAAUGGCGACUGGGACCCA [U23G A78C] | 0.106
GUCGGGCAUGGUCCCAGCCUCCUCGCUGGCGCCGGCUGGGCAACAUUCCGAGGGGACCGUCCCCUCGGUAAUGGCGAAUGGGACCCA [G2U C4G] | 0.0228
GGCCGGCAUGGUCCCAGCCUCCUUGCCGGCGCCGGCUGGGCAACAUUCCGAGGGGACCGUCCCCUCGGUAAUGGCGAAUGGGACCCA [C24U U27C] | 0.332
GGACGGCAUGGUCCCAGCCUCCUCGCUGGCGCCGGCUGGGCAACGUUCCGAGGGGACCGUCCCCUCGGUAAUGGCGAAUGGGACCCA [C3A A45G] | 0.469
GGCCGGCAUGGUCCCAGCCUCCUCGCUGGCGCCGGCUGGGCAACAUUCCUAGGGGACCGUCCCCUCGGUAAUGGCGACUGGGACCCA [G50U A78C] | 0.373
GGCCGGCAUGGUCCCAGCCUCCUCUCUGGCGCCGGCUGGGCAACAUUCCGAGGGGGCCGUCCCCUCGGUAAUGGCGAAUGGGACCCA [G25U A56G] | 0.0554
GGCCGGCAUGGUCCCAGCCUCCUCGCUGGCGCCGGCUGGGCAACAUUCCGAGGGGACCGUCCCCUCGGUAAUCGCGAAUUGGACCCA [G73C G80U] | 0.141
AGCCGGCAUGGUCCCAGCCUCCUCGCUGGCGCCGGCUGGGCAACAUCCCGAGGGGACCGUCCCCUCGGUAAUGGCGAAUGGGACCCA [G1A U47C] | 0.128
GGCCGGCAUGGUCGCAGCCUCCUCGCUGGCGCCGGCUGGACAACAUUCCGAGGGGACCGUCCCCUCGGUAAUGGCGAAUGGGACCCA [C14G G40A] | 0.623
GGCCGGCAUGGUCCCAGCCUCCUCGCUGGCGCCGGCUGGGUAACAUUCCGAGGGGAUCGUCCCCUCGGUAAUGGCGAAUGGGACCCA [C41U C57U] | 1.12
GGCCGGCAUGCUCCCAGCCUCCUCGCUGGCGCCGCCUGGGCAACAUUCCGAGGGGACCGUCCCCUCGGUAAUGGCGAAUGGGACCCA [G11C G35C] | 0.151
GUCCGGCAGGGUCCCAGCCUCCUCGCUGGCGCCGGCUGGGCAACAUUCCGAGGGGACCGUCCCCUCGGUAAUGGCGAAUGGGACCCA [G2U U9G] | 0.101
GGCCGGCAUGGCCACAGCCUCCUCGCUGGCGCCGGCUGGGCAACAUUCCGAGGGGACCGUCCCCUCGGUAAUGGCGAAUGGGACCCA [U12C C14A] | 0.18
GGCCGGCAUAGUCCCAGCCUCCUCGCUGGCGCCGGCUGGGCAACAUUCCGAGGGGACCGUCCCCUCGGUAAUGGCGAAUGGGACCAA [G10A C86A] | 0.82
GGCCGGCAUGGUCCCAUCCUCCUCGCUGGCGCCGGCUGGGCAACAUUCCGAGGGGACCGUCCCCUCGGUAAUGGCGAAUUGGACCCA [G17U G80U] | 0.156
